The target in assay [1] is HIV-1 group M capsid (HIV-1 group M).
Assay [2] shares this target. The source holds these as a separate data set.

Substance gorilla TRIM-RanCyp showed a fold restriction of single-cycle HIV-1 infection in CRFK cells stably expressing the TRIM fusion, against the negative control in assay [1] of 2 fold.
On to chimpanzee TRIM-RanCyp, for which the fold restriction of single-cycle HIV-1 infection in CRFK cells stably expressing the TRIM fusion, against the negative control in assay [1] worked out at 100 fold.
For titi monkey TRIM-RanCyp, the fold restriction of single-cycle HIV-1 infection in CRFK cells stably expressing the TRIM fusion, against the negative control in assay [1] was 100 fold.
As to “gorilla TRIM-RanCyp with the human residue 75G”, in assay [2], the fold change of restriction of single-cycle HIV-1 infection in CRFK cells stably expressing the TRIM fusion, against gorilla TRIM-RanCyp is 35 fold.
Consider marmoset TRIM-RanCyp, for which, in assay [1], the fold restriction of single-cycle HIV-1 infection in CRFK cells stably expressing the TRIM fusion, against the negative control stood at 100 fold.
On to red-capped mangabey TRIM-RanCyp, for which, in assay [1], the fold restriction of single-cycle HIV-1 infection in CRFK cells stably expressing the TRIM fusion, against the negative control is 100 fold.
The substance “human TRIM-RanCyp with the gorilla residue 75R” had a fold decrease in fold change of restriction of single-cycle HIV-1 infection in CRFK cells stably expressing the TRIM fusion, against human TRIM-RanCyp in assay [2] of 70 fold.
orangutan TRIM-RanCyp showed a fold restriction of single-cycle HIV-1 infection in CRFK cells stably expressing the TRIM fusion, against the negative control in assay [1] of 100 fold.

Source of the values: article PMC5843284.
